Experimental findings from patent publication US20110027907A1 are described below.

One assay deals with human serum IgA (human). Description: BIAcore, human serum IgA on CM5 chip, SSL7 mutant as analyte.
Assay [1] addresses TfR-IgA Fc fusion protein, Leu256Ala mutant (Homo sapiens (Human)) (UniProt P01876). Description: flow cytometry, FcαRI-Ig on CHOP cells expressing TfR-IgA Fc fusion.
The target of assay [2] is TfR-IgA Fc fusion protein, Leu257Ala mutant (Homo sapiens (Human)) (UniProt P01876). Described as above.
TfR-IgA Fc fusion protein, Leu257Ala mutant (Homo sapiens (Human)), sequence (P01876 123-331 L138A limits assumed): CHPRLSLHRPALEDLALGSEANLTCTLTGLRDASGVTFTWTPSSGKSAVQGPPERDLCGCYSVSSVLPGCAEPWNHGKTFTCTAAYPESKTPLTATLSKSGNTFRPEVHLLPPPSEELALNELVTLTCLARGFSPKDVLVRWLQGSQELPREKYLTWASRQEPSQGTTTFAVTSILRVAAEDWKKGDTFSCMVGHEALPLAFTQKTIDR
For assay [3], the target named is TfR-IgA Fc fusion protein, Leu258Ala mutant (Homo sapiens (Human)) (UniProt P01876). Described as above.
TfR-IgA Fc fusion protein, Leu258Ala mutant (Homo sapiens (Human)), sequence (P01876 123-331 L139A limits assumed): as the sequence (P01876 123-331 L138A limits assumed) above, with A16L, L17A counted along it
The target in assay [4] is TfR-IgA Fc fusion protein, Leu256Ala mutant (Homo sapiens (Human)) (UniProt P01876). The experiment in a line: flow cytometry, biotinylated rSSL7 on CHOP cells expressing TfR-IgA Fc fusion.
TfR-IgA Fc fusion protein, Leu256Ala mutant (Homo sapiens (Human)), sequence (P01876 123-331 L137A limits assumed): as the sequence (P01876 123-331 L138A limits assumed) above, with L15A, A16L counted along it
The target in assay [5] is TfR-IgA Fc fusion protein, Leu257Ala mutant (Homo sapiens (Human)) (UniProt P01876). The description is as above.
Assay [6] deals with TfR-IgA Fc fusion protein, Leu258Ala mutant (Homo sapiens (Human)) (UniProt P01876). The description is as above.
Assay [7] addresses TfR-IgA Fc fusion protein, His317Ala mutant (Homo sapiens (Human)) (UniProt P01876). Described as above.
The target of assay [8] is TfR-IgA Fc fusion protein, Asn316Ala mutant (Homo sapiens (Human)) (UniProt P01876). The description is as above.
TfR-IgA Fc fusion protein, Asn316Ala mutant (Homo sapiens (Human)), sequence (P01876 123-331 N197A limits assumed): as the sequence (P01876 123-331 L138A limits assumed) above, with A16L, N75A counted along it
For assay [9], the target named is human serum complement factor C5 (human) (UniProt P01031). The experiment in a line: cell-based or functional assay.
human serum complement factor C5 (human), sequence (P01031 19-673 limits assumed, chain 1 of 2): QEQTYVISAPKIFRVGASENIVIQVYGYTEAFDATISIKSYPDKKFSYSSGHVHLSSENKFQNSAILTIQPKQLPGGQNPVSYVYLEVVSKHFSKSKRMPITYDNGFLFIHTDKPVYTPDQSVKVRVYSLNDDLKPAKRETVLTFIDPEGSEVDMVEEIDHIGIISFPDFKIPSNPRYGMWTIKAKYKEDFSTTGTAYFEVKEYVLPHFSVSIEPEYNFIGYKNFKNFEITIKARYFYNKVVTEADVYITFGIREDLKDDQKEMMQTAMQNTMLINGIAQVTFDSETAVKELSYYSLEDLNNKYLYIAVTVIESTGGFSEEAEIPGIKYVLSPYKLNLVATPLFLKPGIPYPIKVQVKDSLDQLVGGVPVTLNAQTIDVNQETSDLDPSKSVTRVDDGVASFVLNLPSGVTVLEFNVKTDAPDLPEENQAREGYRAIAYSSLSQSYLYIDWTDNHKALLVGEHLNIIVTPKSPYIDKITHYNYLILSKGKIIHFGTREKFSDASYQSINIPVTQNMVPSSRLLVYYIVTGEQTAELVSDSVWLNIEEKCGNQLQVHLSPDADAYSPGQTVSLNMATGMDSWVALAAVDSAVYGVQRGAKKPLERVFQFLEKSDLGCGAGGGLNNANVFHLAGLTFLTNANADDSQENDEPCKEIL
human serum complement factor C5 (human), sequence (P01031 678-1676 limits assumed, chain 2 of 2): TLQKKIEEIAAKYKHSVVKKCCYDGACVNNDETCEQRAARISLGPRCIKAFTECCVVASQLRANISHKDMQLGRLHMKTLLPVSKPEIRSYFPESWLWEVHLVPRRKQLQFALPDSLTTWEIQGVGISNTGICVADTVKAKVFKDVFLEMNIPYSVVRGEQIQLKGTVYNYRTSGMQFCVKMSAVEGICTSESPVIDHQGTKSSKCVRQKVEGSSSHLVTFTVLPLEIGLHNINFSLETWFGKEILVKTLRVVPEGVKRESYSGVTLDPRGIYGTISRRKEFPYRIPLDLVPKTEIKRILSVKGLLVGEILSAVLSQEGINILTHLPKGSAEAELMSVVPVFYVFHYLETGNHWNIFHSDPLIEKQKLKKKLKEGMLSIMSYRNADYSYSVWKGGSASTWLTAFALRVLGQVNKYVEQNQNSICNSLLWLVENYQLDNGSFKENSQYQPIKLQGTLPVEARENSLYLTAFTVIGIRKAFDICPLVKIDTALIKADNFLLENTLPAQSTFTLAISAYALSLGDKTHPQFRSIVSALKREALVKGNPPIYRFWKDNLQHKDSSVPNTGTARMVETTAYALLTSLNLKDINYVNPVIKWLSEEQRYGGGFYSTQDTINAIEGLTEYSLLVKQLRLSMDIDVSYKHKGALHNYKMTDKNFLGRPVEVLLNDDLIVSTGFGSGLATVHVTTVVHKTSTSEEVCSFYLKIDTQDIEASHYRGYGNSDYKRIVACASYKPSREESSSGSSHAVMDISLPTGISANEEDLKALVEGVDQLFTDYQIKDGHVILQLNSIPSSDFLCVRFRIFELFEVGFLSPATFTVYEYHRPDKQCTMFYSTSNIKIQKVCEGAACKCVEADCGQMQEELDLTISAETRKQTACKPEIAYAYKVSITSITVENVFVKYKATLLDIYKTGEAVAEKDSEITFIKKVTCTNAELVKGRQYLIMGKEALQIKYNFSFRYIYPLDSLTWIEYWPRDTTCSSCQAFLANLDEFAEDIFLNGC

TfR-IgA Fc fusion protein, His317Ala mutant (Homo sapiens (Human)), sequence (P01876 123-331 H198A limits assumed): as the sequence (P01876 123-331 L138A limits assumed) above, with A16L, H76A counted along it

For the substance SSL7 mutant L79A, in the assay with human serum IgA (human), the Change (fold in KD against SSL7 wild-type) was found to be 91 fold and the Kd worked out at 100 nM.
For SSL7 mutant N38T, in that order: 35 fold and 38 nM.
On the same counts, the results for SSL7 mutant R44A are 3.2 fold and 3.6 nM.
Take “FcαRI-Ig (from UniProt P24071 22-227) (Fc fusion)”: the fold reduction of binding against WT IgA Fc in [1] is 3.3 fold; in [2] it was 2.3 fold; in assay [3] it was > 100 fold.
In the assay with human serum IgA (human), SSL7 mutant N83A came in with a Change (fold in KD against SSL7 wild-type) of 4 fold and a Kd of 4 nM.
As for “recombinant SSL7 (GL1 S. aureus Greenlane), wild type”, the fold reduction of binding against WT IgA Fc came out at 11.5 fold in assay [4]; 15.4 fold in assay [5]; 6.5 fold in [6]; 1.2 fold in assay [7]; 1.8 fold in assay [8].
As for SSL7 mutant P82A, in the assay with human serum IgA (human), the Change (fold in KD against SSL7 wild-type) came out at 35 fold and the Kd amounted to 39 nM.
In assay [9], “SSL7 wild-type (haemolysis assay of FIG. 9)” displayed a haemolysis at 2 µM, % of the maximum lysis of 10% and an inhibition of haemolysis at 2 µM of 90%.
